Results from patent US20030143158A1 (DYAX, published 2003).
Ends that are not written are not given here. fluorescein = fluorescein label on the lysine side chain

B1: synthetic fibrin-binding peptide DX-304 (peptide)
peptide: Ac-WAPCQEEPWLFCFHGGGGK(fluorescein)-NH2
modifications: not fully specified; printed as Ac-WAPCQEEPWLFCFHGGGGK(fluorescein)-NH2; cysteine pairing not given here
B2: synthetic fibrin-binding peptide DX-303 (peptide)
peptide: Ac-WQPCPWESWTFCWDPGGGK(fluorescein)-NH2
modifications: not fully specified; printed as Ac-WQPCPWESWTFCWDPGGGK(fluorescein)-NH2; cysteine pairing not given here
B3: phage isolate 002-35-E01 (peptide)
peptide: WELCSDENWLWCWPH
modifications: not fully specified (bridges); cysteine pairing not given here; also: displayed on M13 phage
notes: The two Cys are believed to form a disulfide
B4: synthetic peptide DX-101 (peptide)
peptide: AEGTGSQWECPYGLCWIQAPGK
modifications: not fully specified (bridges); printed as Ala-Glu-Gly-Thr-Gly-Ser-Gln-Trp-Glu-Cys-Pro-Tyr-Gly-Leu-Cys-Trp-Ile-Gln-Ala-Pro-Gly-Lys; cysteine pairing not given here

Experiments:
fibrinogen = molecular target: T1, fibrinogen (UniProt P02671 20-629; P02675 31-491; P02679 27-437, limits assumed); experiment: phage ELISA on immobilised fibrinogen
T1 construct: Biotinylated and immobilised through streptavidin for ELISA
T1 sequence (looked up) 1: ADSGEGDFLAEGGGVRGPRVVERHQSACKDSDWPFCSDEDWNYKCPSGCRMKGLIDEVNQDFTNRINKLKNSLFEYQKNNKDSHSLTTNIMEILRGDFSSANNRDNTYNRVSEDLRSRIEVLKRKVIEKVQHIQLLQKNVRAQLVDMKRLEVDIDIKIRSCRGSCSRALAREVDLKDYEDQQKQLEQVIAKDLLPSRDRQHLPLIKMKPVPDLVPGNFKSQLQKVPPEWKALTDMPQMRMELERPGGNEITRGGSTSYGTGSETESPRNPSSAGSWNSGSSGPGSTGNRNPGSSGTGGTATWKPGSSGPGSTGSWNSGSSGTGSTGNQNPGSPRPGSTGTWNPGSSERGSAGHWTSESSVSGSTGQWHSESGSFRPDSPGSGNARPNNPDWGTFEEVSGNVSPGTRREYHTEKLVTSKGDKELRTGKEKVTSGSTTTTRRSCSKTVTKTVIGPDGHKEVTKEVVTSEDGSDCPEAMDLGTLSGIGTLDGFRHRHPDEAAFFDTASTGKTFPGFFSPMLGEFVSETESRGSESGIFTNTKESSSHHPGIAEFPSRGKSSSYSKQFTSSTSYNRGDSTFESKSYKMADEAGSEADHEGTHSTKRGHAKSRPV
T1 sequence (looked up) 2: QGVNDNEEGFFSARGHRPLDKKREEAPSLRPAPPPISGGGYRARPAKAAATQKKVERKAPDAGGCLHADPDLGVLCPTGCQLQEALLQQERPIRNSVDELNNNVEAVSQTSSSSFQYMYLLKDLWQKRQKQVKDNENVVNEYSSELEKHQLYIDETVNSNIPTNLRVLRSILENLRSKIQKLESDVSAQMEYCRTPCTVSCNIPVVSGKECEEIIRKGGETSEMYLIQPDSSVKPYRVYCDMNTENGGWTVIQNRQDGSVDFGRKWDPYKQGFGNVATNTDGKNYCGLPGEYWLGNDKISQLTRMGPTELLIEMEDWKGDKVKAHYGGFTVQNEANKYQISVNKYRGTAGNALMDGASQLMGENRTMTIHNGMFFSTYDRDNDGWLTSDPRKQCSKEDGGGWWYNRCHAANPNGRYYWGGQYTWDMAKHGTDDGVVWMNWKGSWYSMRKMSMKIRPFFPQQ
T1 sequence (looked up) 3: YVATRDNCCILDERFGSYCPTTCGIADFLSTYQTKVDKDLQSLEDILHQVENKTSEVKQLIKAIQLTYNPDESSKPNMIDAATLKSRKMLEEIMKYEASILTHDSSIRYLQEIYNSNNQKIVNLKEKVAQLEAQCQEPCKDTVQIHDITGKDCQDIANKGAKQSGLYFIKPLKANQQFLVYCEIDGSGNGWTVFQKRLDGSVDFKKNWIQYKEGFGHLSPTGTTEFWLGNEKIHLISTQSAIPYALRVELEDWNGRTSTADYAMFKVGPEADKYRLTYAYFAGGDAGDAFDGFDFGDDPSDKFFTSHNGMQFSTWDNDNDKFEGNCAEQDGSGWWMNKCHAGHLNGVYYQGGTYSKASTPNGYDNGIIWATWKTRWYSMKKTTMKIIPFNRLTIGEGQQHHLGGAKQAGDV
Procedure: After five rounds of selection, the eluted phage were propagated and a portion plated to isolate phage plaques arising from individual clones. Ninety such clones were selected randomly, propagated, and tested individually for binding to fibrin in a dried fibrin plate assay. Dried fibrin plates were prepared as described above for the library screening. Phage samples (˜10⁹ phage each) were incubated in the dried fibrin plate wells in binding buffer (50 mM Tris, 150 mM NaCl, 2 mM CaCl₂, 0.05% Tween-20) containing 0.1% HSA. After 1 hour, the plates were washed 5 times with binding buffer. Anti-M13 antibody conjugated to horseradish peroxidase (Pharmacia) was added at 1/5000 dilution in binding buffer to the wells and incubated with the fibrin for 1 hour. The wells were again washed 5 times with binding buffer and the presence of the antibody/phage/fibrin complex was measured with HRP calorimetric reagents (3,3′,5,5′-tetramethylbenzidine (TMB) and […]). A high absorbance at 595 nm (due to oxidized TMB) was indicative of a tight phage/fibrin interaction, and phage clones corresponding to those wells were identified as bearing fibrin-binding moieties.
These fibrin-binding positive clones were subjected to several secondary ELISA assays. These assays followed a similar protocol to that detailed above for the dried fibrin ELISA assay, the only variations being the method of target immobilization and the omission of HSA from binding and wash buffers. A screen against DD(E) acted as a further confirmation of fibrin binding activity. […] Finally, ELISAs to assay binding to immobilized HSA (passively bound to the polystyrene plate) and a target-free microtiter plate were controls to eliminate phage that bound promiscuously or nonspecifically.
The ELISAs were performed as described above.

[1] = molecular target: DD(E), soluble fibrin-derived polypeptide (complex of DD dimer with the central E domain of fibrin) (human) (UniProt P02671); experiment: fluorescence polarization (anisotropy), fluorescein-labeled peptide with DD(E)
[2] = molecular target: DD(E), soluble fibrin-derived polypeptide (complex of DD dimer with the central E domain of fibrin) (human) (UniProt P02671); experiment: fluorescence anisotropy (polarization): fluorescein-labeled peptide titrated with DD(E) protein
fibrin = molecular target: T2, fibrin (UniProt P02671 36-629; P02675 45-491; P02679 27-437, limits assumed); experiment: equilibrium binding to dried fibrin plates, free peptide measured by mass spectrometry
T2 construct: Polymerised fibrin formed on 96-well plates from fibrinogen and thrombin; also called dried fibrin; fibrin target
T2 sequence (looked up) 1: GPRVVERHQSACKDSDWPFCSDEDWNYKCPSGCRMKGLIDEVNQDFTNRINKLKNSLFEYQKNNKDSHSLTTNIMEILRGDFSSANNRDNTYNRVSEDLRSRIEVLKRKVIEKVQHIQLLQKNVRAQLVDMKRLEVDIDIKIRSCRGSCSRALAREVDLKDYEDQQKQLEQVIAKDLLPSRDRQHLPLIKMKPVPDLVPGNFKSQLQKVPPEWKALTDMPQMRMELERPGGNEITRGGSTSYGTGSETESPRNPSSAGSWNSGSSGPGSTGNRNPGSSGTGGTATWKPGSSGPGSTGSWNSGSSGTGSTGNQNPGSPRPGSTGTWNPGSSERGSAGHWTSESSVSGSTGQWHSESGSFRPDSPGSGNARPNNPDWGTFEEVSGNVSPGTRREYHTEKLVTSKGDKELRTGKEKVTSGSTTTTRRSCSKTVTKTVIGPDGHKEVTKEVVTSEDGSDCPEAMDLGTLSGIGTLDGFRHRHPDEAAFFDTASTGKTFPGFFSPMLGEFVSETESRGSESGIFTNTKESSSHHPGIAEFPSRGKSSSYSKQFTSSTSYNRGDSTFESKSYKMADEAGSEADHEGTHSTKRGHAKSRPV
T2 sequence (looked up) 2: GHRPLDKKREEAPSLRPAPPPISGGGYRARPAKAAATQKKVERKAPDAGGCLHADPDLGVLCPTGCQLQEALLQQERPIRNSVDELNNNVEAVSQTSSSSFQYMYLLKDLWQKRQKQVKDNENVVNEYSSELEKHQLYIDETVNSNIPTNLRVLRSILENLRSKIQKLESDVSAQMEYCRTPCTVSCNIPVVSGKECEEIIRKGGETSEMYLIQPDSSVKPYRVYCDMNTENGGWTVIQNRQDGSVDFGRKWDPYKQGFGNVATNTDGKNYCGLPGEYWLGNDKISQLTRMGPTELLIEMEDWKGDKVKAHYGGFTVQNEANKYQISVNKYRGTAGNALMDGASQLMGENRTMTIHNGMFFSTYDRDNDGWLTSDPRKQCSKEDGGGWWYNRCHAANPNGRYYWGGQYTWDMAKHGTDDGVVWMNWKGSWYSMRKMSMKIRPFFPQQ
T2 sequence (looked up) 3: T1 sequence (looked up) 3
Procedure: A fibrinogen solution was prepared at 10 mg/ml (or at twice the concentration of fibrin desired) in TBS buffer (50 mM Tris, 150 mM NaCl, pH 7.4). The fibrinogen solution typically contained ˜17 mM citrate. Subsequently, a solution was prepared containing 2 U/ml thrombin, 20 mM CaCl₂, and 5 mM ε-aminocaproic acid in TBS. The fibrinogen solution and thrombin solution were mixed 1:1 in the wells of a 96-well plate, aliquoting 50 μL of each solution in each well (total volume=100 μL). The plates were evaporated to dryness overnight at 37° C. The polypeptide to be tested, dissolved in water, was added to each well at concentrations between 1-200 μM. […] The plate containing the peptide and (rehydrated) dried fibrin was covered and incubated at 37° C. on a shaker table for 2 hours.
The supernatant in each well was removed by pipette and the concentration of the polypeptide was measured by mass spectrometry. The ion current detected at the mass of the peptide was monitored after injection of a sample into the mass spectrometer. The area-under-the-peak was quantified and compared to standards of known concentration. The concentration of peptide in the supernatant is equal to the concentration of free peptide. The concentration of bound peptide was determined by subtracting the concentration of free peptide from the total (starting) concentration. […]

Row | Binder | binding result (fibrinogen) | also measured
1 | WMMCPMSEWLYCWSA [phage isolate 002-36-A02] | no binding | –
2 | B1 | – | Kd [1]: 400 nM; Kd [2]: 350 nM
3 | B2 | – | Kd [1]: 500 nM; Kd [2]: 500 nM
4 | B3 | no binding | –
5 | B4 | – | Kd (fibrin): 700 nM
6 | RAPCDYYGTCVEL [phage isolate 002-36-H04] | no binding | –
7 | WKACPGEDWLFCWGS [phage isolate 002-37-H02] | no binding | –
8 | WAPCQEEPWLFCFHG [phage isolate 002-37-D02] | no binding | –
9 | WQPCPWESWTFCWDP [phage isolate 002-37-C11] | no binding | –
